Experimental findings from patent publication US7285380B2, “Methods of producing polyketide synthase mutants and compositions and uses thereof” (The Salk Institute for Biological Studies, priority 2000, dated 2007) are described below.

Data set [1] is described as follows: TLC-based radiometric assay of product formation by 2-PS, CHS and CHS mutants (LC/MS confirmation). Type of data set: biochemical. To be noted: for product formed: 100 mM Hepes pH 7.0, 30 μM starter-CoA, 60 μM [14C]-malonyl-CoA, 25° C. The text has this: Comparison of the initiation/elongation cavities of 2-PS (SEQ ID NO:68) and CHS (SEQ ID NO:1) reveal four amino acid differences. In 2-PS, Leu202, Met259, Leu261, and Ile343 replace Thr197, Ile254, Gly256, and Ser338, respectively, of CHS. These four substitutions reduce cavity volume from 923 Å^3 in CHS to 274 Å^3 in 2-PS. A model of methylpyrone in the 2-PS cavity, based on the position of acetoacetyl-CoA, emphasizes the volume change compared to the CHS-naringenin complex (Accession No. 1 CGK, SEQ ID NO:69). Leu202 and Ile343 occlude the portion of the 2-PS cavity corresponding to the coumaroyl-binding site of CHS. Replacement of Gly256 in CHS by Leu261 in 2-PS severely reduces the size of the active site cavity. Substitution of Met259 in 2-PS for Ile254 in CHS produces a modest alteration in cavity volume. To examine the functional importance of these amino acid differences, the initiation/elongation cavity of CHS was altered by mutagenesis to resemble that of 2-PS. The resulting mutant proteins were screened for activity using either p-coumaroyl-CoA or acetyl-CoA as starter molecules. Activities of 2-PS, CHS, and the CHS mutants were determined by monitoring product formation using a TLC-based radiometric assay. Assay conditions were 100 mM Hepes (pH 7.0), 30 μM starter-CoA (either p-coumaroyl-CoA or acetyl-CoA), and 60 μM [^14C]-malonyl-CoA (50,000 cpm) in 100 μl at 25° C. Reactions were quenched with 5% acetic acid, extracted with ethyl acetate, and applied to TLC plates and developed. Due to the spontaneous cyclization of chalcone into the flavanone naringenin, activities of CHS are referenced to nanngenin formation.
The x-ray crystal structures of 2-PS (SEQ ID NO:68) and CHS (SEQ ID NO:1) imply that the size of the active site cavity limits polyketide length and modulates folding of the polyketide chain. […] Since the T197L, G256L, and S338Imutants (see SEQ ID NO:1) altered product formation, a CHS triple mutant was generated. […] LC/MS/MS analysis was performed by the Mass Spectroscopy facility of the Scripps Research Institute. Scaled-up assays (2 ml reaction volume) with the CHS T197L/G256L/S338I mutant (see SEQ ID NO:1) and 2-PS (SEQ ID NO:68) were performed. Extracts were analyzed on a Hewlett-Packard HP1100 MSD single quadrupole mass spectrometer coupled to a Zorbax SB-C18 column (5 μm, 2.1 mm×150 mm). HPLC conditions were as follows: gradient system from 0 to 100% methanol in water (each containing 0.2% acetic acid) within 10 mm; flow rate 0.25 ml min^−1. LC/MS/MS data from both reactions were identical: 6-methyl-4-hydroxy-2-pyrone, Rt=5.068 mm; [M-H]^−125; [M-H—CO2]^−81. The numbers show m/z values with relative intensities in parenthesis. The observed fragmentation matches previously published data.

Data set [2] can be described thus: 14C malonyl-CoA assay of CHS mutants, products analysed by TLC and autoradiography (naringenin vs resveratrol). Type of data set: biochemical. To be noted: TLC autoradiography. The source says:
Wild type CHS produces chalcone, which spontaneously converts to naringenin, the position of which is indicated by the arrow on the left. Wild type STS produces resveratrol, the position of which is indicated by the arrow of the right. Function conversion of CHS to STS (i.e., the production of the alternate product from the same intermediate) results in diminished production of naringenin and increased production of resveratrol. Various mutants of CHS produce varying degrees of resveratrol, showing that CHS activity can be altered to STS-like activity to different extents by different mutations.
Mutant CHS (SEQ ID NO: 1) has altered activity based on assays conducted with ^14C malonyl-CoA. Products were extracted with ethyl acetate and analyzed by silica gel thin layer chromatography (TLC) and visualized by autoradiography.

Where [3] appears, read: starter p-coumaroyl-CoA or acetyl-CoA.

Entries after “also recorded” stand apart in the source; their conditions may differ.

Turning to “2-PS: 2-Pyrone synthase from Gerbera hybrida, SEQ ID NO:68 [Mutant 2-PS, reference compound]”, in data set [1], the product formed entry is listed as “produces the triketide methylpyrone; also recorded: yields methylpyrone produced from three malonyl-CoA molecules”. For the same molecule, the starter molecule accepted result in data set [1] (setting [3]) is “accepts acetyl-CoA but does not use p-coumaroyl-CoA”.
In the case of “Wild-type CHS: wild type alfalfa chalcone synthase 2, SEQ ID NO:1 [reference compound]”, the product formed result in data set [1] is “generates the tetraketide chalcone”. Moreover, the “preference for p-coumaroyl-CoA versus acetyl-CoA as starter molecule” value in data set [1] (setting [3]) amounted to 230 fold.

B1: I254M: CHS I254M mutant (protein, listed as Medicago sativa)
chain: MVSVSEIRKAQRAEGPATILAIGTANPANCVEQSTYPDFYFKITNSEHKTELKEKFQRMCDKSMIKRRYMYLTEEILKENPNVCEYMAPSLDARQDMVVVEVPRLGKEAAVKAIKEWGQPKSKITHLIVCTTSGVDMPGADYQLTKLLGLRPYVKRYMMYQQGCFAGGTVLRLAKDLAENNKGARVLVVCSEVTAVTFRGPSDTHLDSLVGQALFGDGAAALIVGSDPVPEIEKPIFEMVWTAQTIAPDSEGAMDGHLREAGLTFHLLKDVPGIVSKNITKALVEAFEPLGISDYNSIFWIAHPGGPAILDQVEQKLALKPEKMNATREVLSEYGNMSSACVLFILDEMRKKSTQNGLKTTGEGLEWGVLFGFGPGLTIETVVLRSVAI
For B1, in data set [1], the “function and specific activity relative to wild-type enzyme” value was “functionally comparable to wild-type enzyme with a modest reduction in specific activity”; the product formed result is given as “yields chalcone”.

B2: T197L: CHS T197L mutant (protein, listed as Medicago sativa)
chain: MVSVSEIRKAQRAEGPATILAIGTANPANCVEQSTYPDFYFKITNSEHKTELKEKFQRMCDKSMIKRRYMYLTEEILKENPNVCEYMAPSLDARQDMVVVEVPRLGKEAAVKAIKEWGQPKSKITHLIVCTTSGVDMPGADYQLTKLLGLRPYVKRYMMYQQGCFAGGTVLRLAKDLAENNKGARVLVVCSEVTAVLFRGPSDTHLDSLVGQALFGDGAAALIVGSDPVPEIEKPIFEMVWTAQTIAPDSEGAIDGHLREAGLTFHLLKDVPGIVSKNITKALVEAFEPLGISDYNSIFWIAHPGGPAILDQVEQKLALKPEKMNATREVLSEYGNMSSACVLFILDEMRKKSTQNGLKTTGEGLEWGVLFGFGPGLTIETVVLRSVAI
For B2, in data set [1], the product formed entry is given as “do not form chalcone; also recorded: form a distinct product using coumaroyl-CoA as a starter molecule”. The “preference for p-coumaroyl-CoA versus acetyl-CoA as starter molecule” value in data set [1] (setting [3]) is reported as 10 fold.

B3: 14B: alfalfa CHS mutant: V98L, T131S, S133T, G134T, V135P, M137L (protein, UniProt P30074 1-389, looked up, variant V98L T131S S133T G134T V135P M137L)
Chalcone synthase 2: MVSVSEIRKAQRAEGPATILAIGTANPANCVEQSTYPDFYFKITNSEHKTELKEKFQRMCDKSMIKRRYMYLTEEILKENPNVCEYMAPSLDARQDMLVVEVPRLGKEAAVKAIKEWGQPKSKITHLIVCSTTTPDLPGADYQLTKLLGLRPYVKRYMMYQQGCFAGGTVLRLAKDLAENNKGARVLVVCSEVTAVTFRGPSDTHLDSLVGQALFGDGAAALIVGSDPVPEIEKPIFEMVWTAQTIAPDSEGAIDGHLREAGLTFHLLKDVPGIVSKNITKALVEAFEPLGISDYNSIFWIAHPGGPAILDQVEQKLALKPEKMNATREVLSEYGNMSSACVLFILDEMRKKSTQNGLKTTGEGLEWGVLFGFGPGLTIETVVLRSVAI
For the molecule B3, in data set [2], the naringenin amount entry was “reduced amounts of naringenin compared to wild type CHS” and the resveratrol amount entry is recorded as “little or no resveratrol”.

B4: S338I: CHS S338I mutant (protein, listed as Medicago sativa)
chain: MVSVSEIRKAQRAEGPATILAIGTANPANCVEQSTYPDFYFKITNSEHKTELKEKFQRMCDKSMIKRRYMYLTEEILKENPNVCEYMAPSLDARQDMVVVEVPRLGKEAAVKAIKEWGQPKSKITHLIVCTTSGVDMPGADYQLTKLLGLRPYVKRYMMYQQGCFAGGTVLRLAKDLAENNKGARVLVVCSEVTAVTFRGPSDTHLDSLVGQALFGDGAAALIVGSDPVPEIEKPIFEMVWTAQTIAPDSEGAIDGHLREAGLTFHLLKDVPGIVSKNITKALVEAFEPLGISDYNSIFWIAHPGGPAILDQVEQKLALKPEKMNATREVLSEYGNMISACVLFILDEMRKKSTQNGLKTTGEGLEWGVLFGFGPGLTIETVVLRSVAI
In the case of B4, the product formed entry in data set [1] is “do not form chalcone”; in data set [1] (listed as S3381) it was “form a distinct product using coumaroyl-CoA as a starter molecule”. For the same molecule, in data set [1] (setting [3]), the “preference for p-coumaroyl-CoA versus acetyl-CoA as starter molecule” value was 3 fold.

B5: G256L: CHS G256L mutant (protein, listed as Medicago sativa)
chain: MVSVSEIRKAQRAEGPATILAIGTANPANCVEQSTYPDFYFKITNSEHKTELKEKFQRMCDKSMIKRRYMYLTEEILKENPNVCEYMAPSLDARQDMVVVEVPRLGKEAAVKAIKEWGQPKSKITHLIVCTTSGVDMPGADYQLTKLLGLRPYVKRYMMYQQGCFAGGTVLRLAKDLAENNKGARVLVVCSEVTAVTFRGPSDTHLDSLVGQALFGDGAAALIVGSDPVPEIEKPIFEMVWTAQTIAPDSEGAIDLHLREAGLTFHLLKDVPGIVSKNITKALVEAFEPLGISDYNSIFWIAHPGGPAILDQVEQKLALKPEKMNATREVLSEYGNMSSACVLFILDEMRKKSTQNGLKTTGEGLEWGVLFGFGPGLTIETVVLRSVAI
As for B5, the product formed entry in data set [1] is “do not form chalcone”. Further, the “preference for acetyl-CoA as starter molecule” value in data set [1] (setting [3]) amounted to 3 fold.

B6: 2B: alfalfa CHS mutant: A1 (D96A, V98L, V99A, V100M), A2 (T131S, S133T, G134T, V135P, M137L) (protein, UniProt P30074 1-389, looked up, variant D96A V98L V99A V100M T131S S133T G134T V135P M137L)
Chalcone synthase 2: MVSVSEIRKAQRAEGPATILAIGTANPANCVEQSTYPDFYFKITNSEHKTELKEKFQRMCDKSMIKRRYMYLTEEILKENPNVCEYMAPSLDARQAMLAMEVPRLGKEAAVKAIKEWGQPKSKITHLIVCSTTTPDLPGADYQLTKLLGLRPYVKRYMMYQQGCFAGGTVLRLAKDLAENNKGARVLVVCSEVTAVTFRGPSDTHLDSLVGQALFGDGAAALIVGSDPVPEIEKPIFEMVWTAQTIAPDSEGAIDGHLREAGLTFHLLKDVPGIVSKNITKALVEAFEPLGISDYNSIFWIAHPGGPAILDQVEQKLALKPEKMNATREVLSEYGNMSSACVLFILDEMRKKSTQNGLKTTGEGLEWGVLFGFGPGLTIETVVLRSVAI
For B6, in data set [2], the naringenin amount entry is “reduced amounts of naringenin compared to wild type CHS” and the resveratrol amount entry is recorded as “little or no resveratrol”.

B7: T197L/G256L/S338I: CHS triple mutant with cavity resembling 2-PS (protein, listed as Medicago sativa)
chain: MVSVSEIRKAQRAEGPATILAIGTANPANCVEQSTYPDFYFKITNSEHKTELKEKFQRMCDKSMIKRRYMYLTEEILKENPNVCEYMAPSLDARQDMVVVEVPRLGKEAAVKAIKEWGQPKSKITHLIVCTTSGVDMPGADYQLTKLLGLRPYVKRYMMYQQGCFAGGTVLRLAKDLAENNKGARVLVVCSEVTAVLFRGPSDTHLDSLVGQALFGDGAAALIVGSDPVPEIEKPIFEMVWTAQTIAPDSEGAIDLHLREAGLTFHLLKDVPGIVSKNITKALVEAFEPLGISDYNSIFWIAHPGGPAILDQVEQKLALKPEKMNATREVLSEYGNMISACVLFILDEMRKKSTQNGLKTTGEGLEWGVLFGFGPGLTIETVVLRSVAI
For the molecule B7, the product formed entry in data set [1] is listed as “produces only methylpyrone”. In addition, in data set [1] (setting [3]), the starter molecule accepted result was “only accepts acetyl-CoA (or malonyl-CoA) as the starter molecule”.
